{"source": "IntAct's records for PubMed 23598340", "parents": {"B1": {"name": "Ktr system potassium uptake protein B (Bacillus subtilis), O32081 (parent)", "chain": "MTLQKDKVIKWVRFTPPQVLAIGFFLTIIIGAVLLMLPISTTKPLSWIDALFTAASATTVTGLAVVDTGTQFTVFGQTVIMGLIQIGGLGFMTFAVLIVMILGKKIGLKERMLVQEALNQPTIGGVIGLVKVLFLFSISIELIAALILSIRLVPQYGWSSGLFASLFHAISAFNNAGFSLWPDNLMSYVGDPTVNLVITFLFITGGIGFTVLFDVMKNRRFKTFSLHTKLMLTGTLMLNAIAMLTVFILEYSNPGTLGHLHIVDKLWASYFQAVTPRTAGFNSLDFGSMREGTIVFTLLLMFIGAGSASTASGIKLTTFIVILTSVIAYLRGKKETVIFRRSIKYPIIIKALAVSVTSLFIVFLGIFALTITEQAPFLQIVFETFSAFGTVGLTMGLTPELTTAGKCIIIVIMFIGRIGPLTFVFSFAKTEQSNIRYPDGEVFTG", "partner": "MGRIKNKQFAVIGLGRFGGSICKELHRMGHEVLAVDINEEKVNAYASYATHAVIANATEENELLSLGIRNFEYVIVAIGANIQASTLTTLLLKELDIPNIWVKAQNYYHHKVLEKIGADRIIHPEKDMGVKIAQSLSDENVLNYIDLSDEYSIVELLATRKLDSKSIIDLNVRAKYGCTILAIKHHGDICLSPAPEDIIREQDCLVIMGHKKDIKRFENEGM"}}}
{"variants_of": "B1", "conditions": "with ktra_bacsu ktrA"}
{"variant": "L108A", "effect of a mutation on the interaction": "decreasing interaction strength"}
